The conditions of series [1]: animal model; without adverse effects on body weight and adipose tissue mass; cited from earlier work.
The conditions of series [2]: overnight administration; lean and obese nondiabetic subjects, impaired glucose tolerance or type 2 diabetes; cited from earlier work.
For series [3] the following is noted: by inhibition of lipolysis; cited from earlier work.
In another series the target is T1, rat prolactin receptor (Rattus norvegicus, UniProt P05710).
T1 construct: host or cells: rat hepatocytes
T1 sequence (P05710 20-310 isoform P05710-3 limits assumed): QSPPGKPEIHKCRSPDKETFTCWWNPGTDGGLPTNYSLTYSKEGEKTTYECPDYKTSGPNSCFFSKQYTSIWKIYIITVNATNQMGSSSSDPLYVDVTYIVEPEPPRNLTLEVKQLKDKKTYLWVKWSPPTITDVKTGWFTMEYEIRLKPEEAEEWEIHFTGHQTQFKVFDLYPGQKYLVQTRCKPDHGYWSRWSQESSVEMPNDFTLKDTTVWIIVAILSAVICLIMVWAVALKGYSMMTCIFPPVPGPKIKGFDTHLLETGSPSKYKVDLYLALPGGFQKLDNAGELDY
The conditions noted are these: cited from earlier work.

For a further series, the target named is T2, GH receptors (Rattus norvegicus, UniProt P16310).
T2 construct: host or cells: rat hepatocytes
T2 sequence (P16310 19-638): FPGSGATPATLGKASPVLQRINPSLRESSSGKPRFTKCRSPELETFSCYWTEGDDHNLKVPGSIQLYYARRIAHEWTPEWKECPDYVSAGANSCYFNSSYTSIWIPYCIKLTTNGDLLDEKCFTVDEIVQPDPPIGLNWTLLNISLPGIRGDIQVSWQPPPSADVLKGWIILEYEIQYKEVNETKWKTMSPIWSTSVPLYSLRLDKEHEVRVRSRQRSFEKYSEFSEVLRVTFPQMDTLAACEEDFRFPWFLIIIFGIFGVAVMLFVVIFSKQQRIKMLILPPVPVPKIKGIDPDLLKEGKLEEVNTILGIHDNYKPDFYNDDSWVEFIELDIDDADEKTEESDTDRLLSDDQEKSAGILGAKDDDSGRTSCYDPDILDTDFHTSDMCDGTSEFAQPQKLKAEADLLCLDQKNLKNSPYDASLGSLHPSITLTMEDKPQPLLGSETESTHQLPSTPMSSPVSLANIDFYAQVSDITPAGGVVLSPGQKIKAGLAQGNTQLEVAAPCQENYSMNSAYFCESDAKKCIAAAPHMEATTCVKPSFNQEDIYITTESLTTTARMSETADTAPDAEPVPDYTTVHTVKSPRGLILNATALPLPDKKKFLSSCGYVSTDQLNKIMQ
The conditions noted are these: cited from earlier work.

The nature of series [4]: Tibial bone length, area and density by pQCT post-mortem. The conditions noted are these: for Fisher's PLSD for TRABECULAR, Mean Diff.: effect: treatment, significance level 5%. In kind it is in vivo, Wistar rats. As to the method:
(§1) Body lengths (nose-anus and nose-tail) and bone length (tibial, femoral length) was assessed post-mortem using peripheral quantitative computed tomography (PQCT, Stratec) analysis. Bone density was also assessed via pQCT.
Tibias were stored in 10% neutral buffered formalin. Tissue was stripped from the bone and bone length, area and density (cortical and trabecular) was assessed using pQCT (Stratec). […] Tibial length was highly correlated with total body (nose-anus) length (FIG. 5).

Series [5] can be described thus: Body lengths (nose-anus) post-mortem and BMI. The series is classed as in vivo, Wistar rats. As to the method: as §1
A BMI was calculated using: body weight/nose-anus length (cm)2. […] Due to the lack of lipolysis in the GH and acipimox treated animals compared to GH treated, alterations in BMI probably reflect an enhancement of liner growth above that of GH alone.

Series [6] can be described thus: Blood hematocrit (marker of plasma volume / fluid retention). The note with it: compared to saline; AD and SGA groups. In kind it is in vivo, Wistar rats. An excerpt: A well-characterised effect of GH treatment is increased plasma volume (Johannsson et al, 2002). Decrease in blood hematocrit is a reliable marker of increase in plasma volume associated with fluid retentive effects of GH therapy.

Series [7] can be described thus: Tissue studies: organ and fat depot weights at termination. In kind it is in vivo, Wistar rats. As for the experimental part:
At termination animals were sacrificed by decapitation under halothane anaesthesia. Tissues (heart, liver, muscle and adipose (subcutaneous and visceral)) were collected, weighed and snap frozen in liquid nitrogen for subsequent analysis. An aliquot of liver tissue was also frozen at −20° C. for examining the growth hormone receptor using ligand-binding analysis.

In another series the test system is plasma IGF-I. The series is described as follows: Plasma IGF-I by RIA. The series is classed as in vivo, Wistar rats. The conditions noted are these: compared to saline controls; AD and SGA animals; at time of sacrifice. As to the method:
(§2) Blood samples were collected following overnight fast. Samples were collected from the tail vein and at termination following decapitation under halothane anaesthetic. Blood samples were collected into heparinised tubes and centrifuged for harvesting of plasma. Blood samples were then analysed for insulin, glucose, FFAs, leptin, IGF-I, glycerol, triglycerides, cholesterol, corticosterone, markers of hepatic function (ALT, AST, ALP), and for markers of protein synthesis.
(§3) Plasma FFAs, triglycerides and glycerol were measured by diagnostic kit (Boehringer-Mannheim #1383175 and Sigma #337 respectively). Plasma leptin, insulin were measured using commercially available kits (inco, St Charles, Mo., US). Plasma IGF-I was measured by RIA as described previously (Vickers et al., 2000). Plasma glucose concentrations were measured using a colorimetric plate assay. All other plasma analytes (liver enzymes, electrolytes, etc.) were measured by a BM/Hitachi 737 analyser by Agriquality Laboratory Services (Auckland, New Zealand).

Another series relates to plasma glucose. The series is described as follows: Fasting plasma glucose. The series is classed as in vivo, Wistar rats. The conditions noted are these: compared to controls. As to the method:
as §2, §3

For the next series, the system named is plasma leptin. As to the kind of experiment: Plasma leptin. In kind it is in vivo, Wistar rats. The note with it: compared to saline animals and animals that received GH and fibrate. As to the method:
as §2, §3

The test system of the next series is plasma triglycerides. The series is described as follows: Plasma triglycerides. The series is classed as in vivo, Wistar rats. The note with it: compared to saline controls. As to the method:
as §2, §3

Series [8] is described as follows: Systolic blood pressure by tail cuff plethysmography. The conditions noted are these: SGA offspring. The series is classed as in vivo, Wistar rats. As to the method: Systolic and diastolic blood pressure and heart rate were recorded by tail cuff plethysmography according to the manufacturer's instructions (Blood pressure analyser IITC, Life Science, Woodland Hills, Calif., USA). Rats were restrained in a clear plastic tube in a heated room (25-28° C.). After 10-15 minutes acclimatisation the cuff was placed on the tail and inflated to 240 mmHg. Pulses were recorded during deflation at a rate of 3 mmHg/sec and reappearance of a pulse was used to determine systolic blood pressure. A minimum of 3 clear systolic blood pressure recordings were taken per animal. Previous observations indicate that the coefficient of variation for repeated measurements is <5%.

Where two headings read alike, the source gives them in different places.

For the molecule `CC(C)(Oc1ccc(C2CC2(Cl)Cl)cc1)C(=O)O` (stereo not shown) [ciprofibrate], the insulin resistance result in [1] is on record as “reduce insulin resistance”.
In the case of `Cc1cnc(C(=O)O)c[n+]1[O-]` [acipimox, 5-methylpyrazinecarboxylic acid 4-oxide], in series [2], the insulin resistance result is listed as “reduce insulin resistance” and the “plasma FFA levels” value is listed as “lower plasma FFA levels”. The “GH induced insulin resistance” value in series [3] is “partially prevent”.
As to “hGH: human growth hormone, lactogenic and somatogenic in the rat”, in the series with rat prolactin receptor, the “binding to prolactin receptor (lactogenic binding sites)” value is “binding to both prolactin receptors and GH receptors”. Moreover, the “binding to GH receptors (somatogenic binding sites)” value with GH receptors was “binding to both prolactin receptors and GH receptors”.
On to `CCCCCCCN(CCc1ccc(SC(C)(C)C(=O)O)cc1)C(=O)Nc1ccc(F)cc1F` [GW9578], for which the insulin resistance result in [1] was “reduce insulin resistance”.

B1: GH: Recombinant bovine growth hormone, a pure somatogen in the rat, given subcutaneously at 5 mg/kg/day (protein, UniProt P01246 27-217, looked up)
Somatotropin: AFPAMSLSGLFANAVLRAQHLHQLAADTFKEFERTYIPEGQRYSIQNTQVAFCFSETIPAPTGKNEAQQKSDLELLRISLLLIQSWLGPLQFLSRVFTNSLVFGTSDRVYEKLKDLEEGILALMRELEDGTPRAGQILKQTYDKFDTNMRSDDALLKNYGLLSCFRKDLHKTETYLRVMKCRRFGEASCAF
With B1, in [4] (pQCT), the Total bone density entry is “trend (p=0.056) towards to drop”. The trabecular bone mass entry in series [4] (pQCT, AD and SGA animals) is given as “significantly reduced”. Further, the Tibial length result in [4] (pQCT, effect of treatment, AD and SGA) was “significantly increased”. Also, the “Fisher's PLSD for TRABECULAR, Mean Diff.” value is given as −4.381 in series [4] (versus GH/ACIP), −10.613 in series [4] (versus GH/FIB) and −14.137 in series [4] (versus SALINE). Besides, the BMI entry in series [5] (compared to saline) is “not significantly different”. Besides, the Nose anus lengths entry in [5] (post-mortem, effect of treatment) is “significantly increased”. The blood plasma hematocrit entry in series [6] was “significantly reduced”. The Relative kidney weight result in [7] (compared to saline controls) is given as “reduced”. The retroperitoneal fat mass result in series [7] (compared to saline controls) was “significantly reduced”. Further, the Relative liver weight entry in series [7] (relative to body weight, AD and SGA animals) is given as “no effect”. Besides, in the series with plasma IGF-I, the “Plasma IGF-I” value was “significantly increased”. For the same molecule, in the series on plasma glucose, the Fasting plasma glucose entry is “not significantly altered”. Besides, the plasma leptin result in the series on plasma leptin was “elevated”. Moreover, in the series with plasma triglycerides, the Plasma triglycerides result was “no significant effect”. Besides, the systolic blood pressure result in series [8] is “significantly reduced and normalised”. The “binding to prolactin receptor (lactogenic binding sites)” value with rat prolactin receptor is “not a ligand”.

The values are drawn from patent US20070037861A1, “Enhanced method of treatment of growth disorders” (PFIZER HEALTH AB, priority 2003, published 2007).
